Key:
[1] = substrate: pNPB; assay: Proxy for plastic degradation [Relative activity]
[2] = substrate: PET; assay: Proxy for plastic degradation [Released monomer concentration (HPLC/LC-MS) (terephthalic acid)]; conditions: pH 8

| Protein | Proxy for plastic degradation ([1]; pH 3) [%] | Proxy for plastic degradation ([1]; pH 4) [%] | Proxy for plastic degradation ([1]; pH 5) [%] | Proxy for plastic degradation ([1]; pH 6) [%] | Proxy for plastic degradation ([1]; pH 7, 17 °C) [%] | Proxy for plastic degradation ([1]; pH 7, 22 °C) [%] | Proxy for plastic degradation ([1]; pH 7, 28 °C) [%] | Proxy for plastic degradation ([1]; pH 7, 37 °C) [%] | Proxy for plastic degradation ([1]; pH 7, 42 °C) [%] | Proxy for plastic degradation ([1]; pH 7, 55 °C) [%] | Proxy for plastic degradation ([1]; pH 7, 60 °C) [%] | Proxy for plastic degradation ([1]; pH 7, 70 °C) [%] | Proxy for plastic degradation ([1]; pH 7, 80 °C) [%] | Proxy for plastic degradation ([1]; pH 7, 90 °C) [%] | Proxy for plastic degradation ([1]; pH 8) [%] | Proxy for plastic degradation ([1]; pH 9.2) [%] | Proxy for plastic degradation ([1]; pH 10.2) [%] | Proxy for plastic degradation [2] [µM] |
| --- | --- | --- | --- | --- | --- | --- | --- | --- | --- | --- | --- | --- | --- | --- | --- | --- | --- | --- |
| unnamed (protein) MNVLTKCKLALGIIAIFFSLPSFAVPCSDCSNGFERGQVPRVDQLESSRGPYSVKTINVSRLARGFGGGTIHYSTESGGQQGIIAVVPGYVSLEGSIKWWGPRLASWGFTVITIDTNTIYDQPDSRASQLSAAIDYVIDKGNDRSSPIYGLVDPNRVGVIGWSMGGGGSLKLATDRKIDAVIPQAPWYLGLSRFSSITSPTMIIACQADVVAPVSVHASRFYNQIPGTTPKAYFEIALGSHFCANTGYPSEDILGRNGVAWMKRFIDKDERYTQFLCGQNFDSSLRVSEYRDNCSYY | 0 | 0 | 0 | 11 | 60 | 60 | 62 | 72 | 82 | 100 | 81 | 81 | 55 | 35 | 100 | 76 | 48 | – |
| unnamed (protein) MPITARNTLASLLLASSALLLSGTAFAANPPGGDPDPGCQTDCNYQRGPDPTDAYLEAASGPYTVSTIRVSSLVPGFGGGTIHYPTNAGGGKMAGIVVIPGYLSFESSIEWWGPRLASHGFVVMTIDTNTIYDQPSQRRDQIEAALQYLVNQSNSSSSPISGMVDSSRLAAVGWSMGGGGTLQLAADGGIKAAIALAPWNSSINDFNRIQVPTLIFACQLDAIAPVALHASPFYNRIPNTTPKAFFEMTGGDHWCANGGNIYSALLGKYGVSWMKLHLDQDTRYAPFLCGPNHAAQTLISEYRGNCPY | 0 | 0 | 0 | 4 | 63 | 70 | 71 | 77 | 76 | 82 | 100 | 100 | 81 | 82 | 100 | 99 | 90 | 900 |

From the PETadex activity labels (doi:10.1128/aem.02773-17)
